In this assay the target is T1, human PD1 on NFAT-luc2/PD1 Jurkat Cell line (Promega, #CS187102) (human, UniProt Q15116 25-288).
T1 construct: whole, on cells; also called PD1+Jurkat cells; human PD1-expressing cell line
Kind of assay: flow cytometry on NFAT-luc2/PD1 Jurkat cells, Ab 10 micro g/mL, detected with Goat F(ab')2 anti-Human IgG-PE. On the technique in general: In flow cytometry, cells or beads pass a laser one at a time.

T1 sequence (Q15116 25-288): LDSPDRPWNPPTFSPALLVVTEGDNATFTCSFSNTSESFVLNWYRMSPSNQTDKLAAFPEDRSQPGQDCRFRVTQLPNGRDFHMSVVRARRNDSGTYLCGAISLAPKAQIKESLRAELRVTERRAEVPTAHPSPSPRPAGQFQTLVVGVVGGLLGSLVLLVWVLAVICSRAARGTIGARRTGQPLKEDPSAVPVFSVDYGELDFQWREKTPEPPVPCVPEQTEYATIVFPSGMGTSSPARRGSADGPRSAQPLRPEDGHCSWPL
Excerpt: Unbound Abs were removed by washing twice with staining buffer.

B1: PDA0129 (antibody, human IgG1, kappa, V domains shown)
VH: QSVEESGGRLVTPGTPLTLTCTVSGFSLSSYDMSWVRQAPGKGLEYIGIISSSGSTYYASWAKGRFTISKTSTTVDLKITSPTTEDTATYFCARLGYVGYGYADIWGPGTLVTVSS
VL: IEMTQTPFSVSAAVGGTVTIKCQASEDIYSLLAWYQQKPGQPPKLLIYSASTLASGVPSRFKGSGYGTEFTLTISGVQAADAATYYCQGGYYSSSADNTFGGGTEVVVKR
Regarding B1, the binding result was “binds”.

B2: PDA0107 (antibody, human IgG1, kappa, V domains shown)
VH: QSVEESGGRLVTPGTPLTLTCTVSGFSLSRYYMSWVRQAPGKGLEWIGYIYADSGSTWYASWAKGRFTISKTSTTVDLKMTSLTTEDTATYFCARRADHDGAFDLWGPGTLVTVSS
VL: AAVLTQTPSPVSAAVGGTVSISCQSSQSVYGKNELSWYQQKPGQPPKLLIYYASTLASGVPSRFSGSGSGTQFALTISGVQADDAATYYCAGGYSSSVDTTFGGGTEVVVKR
On to B2, for which the binding result was “binds”.

B3: GY14 (antibody, human IgG1, kappa, V domains shown)
VH: QVQLQQSGAELVRPGASVKLSCKALGDTFTDYEIHWVKQTPVHGLEWIGVIHPGSGGTVYNQKFKGKATLTADKYSSTAYMELSSLTSEDSAVYYCTREGMNTDWYFDVWGAGTTVTVSS
VL: DILMTQDELSLPVSLGDQASISCRSSQTIVHTNGNTYLEWYLQKPGQSPKLLIYKVSNRFSGVPDRFSGSGSGTYFTLKISRLEAEDLGVYYCFQGSHVPYTFGGGTKLEMKR
As to B3, the binding result is “binds”.

B4: PDC0037 (antibody, human IgG1, kappa, V domains shown)
VH: QSVEESGGRLVTPGTPLTLTCTVSGFSLSYYAMIWVRQAPGKGLEWIGFINSYGKTYYANWAKGRFTISKTSTTVDLKMTSLTSEDTATYFCARERDNYHFNLWGQGTLVTVSS
VL: AQVLTQTPSPVSAAVGGTVTISCQSSESVYNNNWLAWYQQKPGQPPKFLIYDASTLASGVPSRFSGSGSGTQFTLTISGVQADDAATYYCQGTYYSSDWYFVFGGGTEVVVKR
B4: the binding result is reported as “binds”.

B5: GY5 (antibody, human IgG1, kappa, V domains shown)
VH: QVQLQQSGPELVRPGVSVKISCKGSGHTFTDYALHWVRQSHVKSLEWIGVISSYNGITNYNQRFKGKATMTVDKSSSTAYLELARLTSEDSAIYYCSREEWDVFYYFDYWGQGTTLTVSS
VL: DIMLTQSPLSLPVSLGDQASISCRSSQGIVHSDGNTYLEWYLQKPGQSPKLLIYKVSNRFSGVPDRFSGSGSGTDFILKISRVEAEDLGVYYCFQGSHVPYTFGGGTKLEIKR
In the case of B5, the binding result is recorded as “binds”.

B6: PDA0044 (antibody, human IgG1, kappa, V domains shown)
VH: QSVEESGGRLVTPGTPLTLTCTASGFSLSGYYMSWVRQAPGKGLEWIGSISYGGSTYYASWAKGRFTISKTSTTVDLKITSPTTEDTATYFCAAGYTTNTAFDPWGPGTLVTVSS
VL: AFELTQTPSSVEAAVGGTVTIKCQASQSISSYLAWYQQKPGQPPKLLIYGASNLKSGVPSRFKGSGSGTQFTLTISDLEAADAATYYCQSYYYSSSSSYSFGGGTEVVVKR
Turning to B6, the binding result is reported as “binds”.

B7: PDC0053 (antibody, human IgG1, kappa, V domains shown)
VH: QQHLVESGGGLVKPGASLTLTCKASGFYFSGYYYMSWVRQAPGKGLEWIASIYSGGSGNTYYASWAKGRFTISKTSSTTVTLQMTSLTAADTATYFCARGADYTHDYPADAAAWSFDPWGPGTLVTVSS
VL: DIVMTQTPASVEAAVGGIVTIKCQASQSISSYLAWYQQKPGQPPNLLIYRASTLASGVPSRFKGSGSGTQFTLTISDLEAADAATYYCQGYHFSSTSSNYGNAFGGGTEVVVKR
Consider B7, for which the binding result is “binds”.

B8: PDA0138 (antibody, human IgG1, kappa, V domains shown)
VH: QSVEESGGRLVTPGTPLTLTCTVSGFSLSSYHMCWVRQPPGKGLEYIGIISGGAITYYATWAKGRFTISITSSTTVDLKITSPTTEDTATYFCARGGGYGGGDYNFDLWGQGTLVTVSS
VL: AAVLTQTPSPVSAAVGATVSISCQSSQSVYGNSELAWYQQKPGQRPKLLIFEASKLASGVPSRFSGSGSGTQFSLAISDVQADDAATYYCAGGYSSTSDTTFGGGTEVVVKR
Take B8: the binding result was “binds”.

B9: PDE0171 (antibody, human IgG1, kappa, V domains shown)
VH: QSLEESGGGLVKPGASLTLTCTASGFSFSGSYYMCWVRQAPGKGLECIACIYAGSSGATYYASWAKGRFTVSKTSSTTVTLQMTSLTAADTATYFCARHTNGIGLGLWGPGTLVTVSS
VL: DIVMTQTPASVSAAVGGTVSINCQASEDIENFLAWYQQKPGQPPSLLIYETSKLASGVPSRFSGSGSGTEFTLTISDLEAADAATYYCQSYDWSDSSTYDNTFGGGTEVVVKR
With B9, the binding result is on record as “binds”.

(Values after patent US20260265386A1 (Chugai, published 2026).)
